From article PMC2275160

Legend:
Assay in all cases: EMSA
His6-Glis3(ZFD)4m = molecular target: T1, His6-Glis3(ZFD)4m (mouse, UniProt Q6XP49 345-496, C444A)
T1 sequence: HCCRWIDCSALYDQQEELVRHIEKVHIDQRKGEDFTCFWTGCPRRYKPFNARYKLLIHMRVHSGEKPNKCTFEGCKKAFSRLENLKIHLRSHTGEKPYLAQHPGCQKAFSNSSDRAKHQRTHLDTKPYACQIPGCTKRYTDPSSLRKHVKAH

His6-Glis3(ZFD)1m = molecular target: T2, His6-Glis3(ZFD)1m (mouse, UniProt Q6XP49 345-496, C347A)
T2 sequence: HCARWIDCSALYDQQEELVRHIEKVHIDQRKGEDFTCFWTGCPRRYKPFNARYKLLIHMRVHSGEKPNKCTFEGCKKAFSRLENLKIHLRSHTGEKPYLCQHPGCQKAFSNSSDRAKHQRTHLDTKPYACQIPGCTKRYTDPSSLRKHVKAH

His6-Glis3(ZFD)2m = molecular target: T3, His6-Glis3(ZFD)2m (mouse, UniProt Q6XP49 345-496, C381A)
T3 sequence: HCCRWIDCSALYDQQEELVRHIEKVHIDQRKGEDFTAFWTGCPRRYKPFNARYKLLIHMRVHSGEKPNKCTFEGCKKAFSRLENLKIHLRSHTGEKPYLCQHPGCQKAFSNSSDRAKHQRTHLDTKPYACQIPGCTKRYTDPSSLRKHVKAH

His6-Glis3(ZFD)3m = molecular target: T4, His6-Glis3(ZFD)3m (mouse, UniProt Q6XP49 345-496, C414A)
T4 sequence: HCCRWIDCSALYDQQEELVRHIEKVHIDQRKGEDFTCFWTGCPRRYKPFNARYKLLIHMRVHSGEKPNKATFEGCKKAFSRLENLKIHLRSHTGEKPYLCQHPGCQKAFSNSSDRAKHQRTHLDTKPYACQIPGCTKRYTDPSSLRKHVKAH

His6-Glis3(ZFD)5m = molecular target: T5, His6-Glis3(ZFD)5m (mouse, UniProt Q6XP49 345-496, C474A)
T5 sequence: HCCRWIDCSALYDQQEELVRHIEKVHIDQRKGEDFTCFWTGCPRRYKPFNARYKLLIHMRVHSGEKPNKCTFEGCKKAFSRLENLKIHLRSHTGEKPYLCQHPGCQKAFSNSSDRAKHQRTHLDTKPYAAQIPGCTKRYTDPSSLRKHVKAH

His6-Glis3(ZFD) = molecular target: T6, His6-Glis3(ZFD) (mouse, UniProt Q6XP49 345-496)
T6 sequence: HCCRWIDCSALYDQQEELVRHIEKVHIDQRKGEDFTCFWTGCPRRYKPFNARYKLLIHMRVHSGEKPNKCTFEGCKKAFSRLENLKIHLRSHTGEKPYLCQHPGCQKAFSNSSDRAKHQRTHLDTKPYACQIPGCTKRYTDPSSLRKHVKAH

B1: Glis-BS consensus (dsDNA)
DNA 1: CGTGGGGGGTC
DNA 2: GACCCCCCACG
- binding result (His6-Glis3(ZFD)4m): no binding
- binding result (His6-Glis3(ZFD)1m): no binding
- binding result (His6-Glis3(ZFD)2m): no binding
- binding result (His6-Glis3(ZFD)3m): no binding
- binding result (His6-Glis3(ZFD)5m): no binding
- Kd (His6-Glis3(ZFD)): 3.69 ± 0.26 nM
